In assay [1] the target is T1, human CXCR5 (human, UniProt P32302 1-372).
T1 sequence: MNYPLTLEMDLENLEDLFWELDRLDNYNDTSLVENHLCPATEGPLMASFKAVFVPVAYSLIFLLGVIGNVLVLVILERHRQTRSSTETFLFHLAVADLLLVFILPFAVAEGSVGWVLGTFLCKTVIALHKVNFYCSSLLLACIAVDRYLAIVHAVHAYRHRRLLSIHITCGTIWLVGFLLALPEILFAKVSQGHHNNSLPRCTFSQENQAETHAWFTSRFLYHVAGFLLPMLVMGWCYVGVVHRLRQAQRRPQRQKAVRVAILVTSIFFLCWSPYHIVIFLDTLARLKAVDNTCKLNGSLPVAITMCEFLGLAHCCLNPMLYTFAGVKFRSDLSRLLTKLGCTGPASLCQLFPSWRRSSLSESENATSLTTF
Briefly: cell-based or functional assay.

Assay [2] addresses T1, human CXCR5. In words: cell-based or functional assay. The source holds these as a separate data set.
Assay [3] concerns the target T1, human CXCR5. Briefly: cell-based or functional assay. This is another data set of the same source.
In another assay the target is T2, rat CXCR5 (rat, UniProt P34997 1-374).
T2 construct: whole, on cells
T2 sequence (looked up): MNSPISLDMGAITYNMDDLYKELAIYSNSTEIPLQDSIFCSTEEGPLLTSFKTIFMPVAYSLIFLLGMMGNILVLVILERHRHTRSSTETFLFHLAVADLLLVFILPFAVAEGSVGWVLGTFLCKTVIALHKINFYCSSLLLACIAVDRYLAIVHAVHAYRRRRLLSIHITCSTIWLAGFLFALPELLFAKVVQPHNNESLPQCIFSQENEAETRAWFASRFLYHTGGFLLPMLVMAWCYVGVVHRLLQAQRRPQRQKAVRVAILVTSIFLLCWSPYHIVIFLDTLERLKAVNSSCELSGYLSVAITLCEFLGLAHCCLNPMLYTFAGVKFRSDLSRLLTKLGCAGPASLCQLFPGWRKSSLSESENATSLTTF
In words: FACS on cells expressing species orthologues. On the procedure:
(§1) Binding of anti-CXCR5 antibodies to cell lines and primary cells expressing human CXCR5 or species orthologues was assessed by FACS. Briefly, approximately 1×10⁵ CXCR5 expressing cells were suspended in FACS buffer (PBS containing 1% FBS and 0.02% sodium azide) containing increasing concentrations of anti-CXCR5 antibodies ranging from 0-100 μg/ml, and incubated for 20 min at 4° C. Cells were washed and then resuspended in FACS buffer containing PE-labelled goat anti-human IgG (Jackson labs) for 20 min at 4° C. Cells were then washed 3 times and resuspended in 100 μl FACS buffer and analysed on a FACScalibur instrument (BD Sciences). MFI was plotted against antibody concentration and Graph pad prism software was used to calculate EC₅₀ values.

In the next assay the target is T3, mouse CXCR5 (mouse, UniProt Q04683 1-374).
T3 construct: whole, on cells
T3 sequence (looked up): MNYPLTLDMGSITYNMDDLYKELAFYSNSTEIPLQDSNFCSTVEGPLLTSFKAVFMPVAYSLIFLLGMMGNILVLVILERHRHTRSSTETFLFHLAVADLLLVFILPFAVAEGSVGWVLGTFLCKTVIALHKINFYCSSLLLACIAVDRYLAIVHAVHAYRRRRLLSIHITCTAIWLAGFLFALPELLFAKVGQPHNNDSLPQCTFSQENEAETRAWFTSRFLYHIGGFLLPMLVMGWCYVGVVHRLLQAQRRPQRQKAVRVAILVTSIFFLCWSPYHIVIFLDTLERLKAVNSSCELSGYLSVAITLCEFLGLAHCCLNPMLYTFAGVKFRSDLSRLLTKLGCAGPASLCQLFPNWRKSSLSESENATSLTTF
In words: FACS on cells expressing species orthologues. On the procedure:
as §1

B1: anti-CXCR5 40C01-VH1-Vk3 as IgG4 (antibody)
heavy: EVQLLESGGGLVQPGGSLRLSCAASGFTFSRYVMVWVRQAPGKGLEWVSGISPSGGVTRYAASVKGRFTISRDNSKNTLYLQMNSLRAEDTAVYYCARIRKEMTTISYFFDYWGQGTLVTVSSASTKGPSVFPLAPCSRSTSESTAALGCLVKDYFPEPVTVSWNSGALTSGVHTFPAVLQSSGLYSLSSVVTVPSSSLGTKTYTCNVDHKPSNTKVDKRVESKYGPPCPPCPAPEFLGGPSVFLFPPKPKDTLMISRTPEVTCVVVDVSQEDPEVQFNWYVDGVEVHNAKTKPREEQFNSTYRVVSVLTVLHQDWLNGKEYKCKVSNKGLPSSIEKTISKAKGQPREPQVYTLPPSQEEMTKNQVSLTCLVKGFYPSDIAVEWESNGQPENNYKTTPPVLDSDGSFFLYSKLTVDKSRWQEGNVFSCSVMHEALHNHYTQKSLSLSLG
light: DIQMTQSPSSLSASVGDRVTITCRASQGVDAYVAWYQQKPGKVPKLLIYSTSTLASGVPSRFSGSGSGTDFTLTISSLQPEDVATYYCQSHNAAVVTFGQGTRLEIKRTVAAPSVFIFPPSDEQLKSGTASVVCLLNNFYPREAKVQWKVDNALQSGNSQESVTEQDSKDSTYSLSSTLTLSKADYEKHKVYACEVTHQGLSSPVTKSFNRGEC
Turning to B1, in the assay with human CXCR5 [1], the “efficacy of inhibition of CXCL13-stimulated L1.2-CXCR5 chemotaxis” value was 100%. Besides, the “IC50, inhibition of CXCL13-induced L1.2-CXCR5 chemotaxis” value with human CXCR5 [2] was 2.1 nM.

B2: recombinant Fab fragment of 40C01-VH1-Vk3 (Fab, V domains shown)
VH: EVQLLESGGGLVQPGGSLRLSCAASGFTFSRYVMVWVRQAPGKGLEWVSGISPSGGVTRYAASVKGRFTISRDNSKNTLYLQMNSLRAEDTAVYYCARIRKEMTTISYFFDYWGQGTLVTVSS
VL: DIQMTQSPSSLSASVGDRVTITCRASQGVDAYVAWYQQKPGKVPKLLIYSTSTLASGVPSRFSGSGSGTDFTLTISSLQPEDVATYYCQSHNAAVVTFGQGTRLEIK
With B2, the “IC50, inhibition of human CXCR5-L1.2 cell chemotaxis” value with human CXCR5 [1] was found to be 288 nM.

B3: recombinant Fab fragment of 40C01-VH2-Vk3 (Fab, V domains shown)
VH: EVQLLESGGGLVQPGGSLRLSCAASGFTFSRSVMVWVRQAPGKGLEWVSGISPSGGVTRYAASVKGRFTISRDNSKNTLYLQMNSLRAEDTAVYYCARIRKEKTTISYFFDYWGQGTLVTVSS
VL: DIQMTQSPSSLSASVGDRVTITCRASQGVDAYVAWYQQKPGKVPKLLIYSTSTLASGVPSRFSGSGSGTDFTLTISSLQPEDVATYYCQSHNAAVVTFGQGTRLEIK
Turning to B3, the “IC50, inhibition of human CXCR5-L1.2 cell chemotaxis” value with human CXCR5 [1] came to 20.9 nM.

B4: mAb 80B09 (antibody, V domains shown)
VH: EVQLLESGGGLVQPGGSLRLSCAASGFTFSKYNMLWVRQAPGKGLEWVSVISPSGGRTSYADSVKGRFTISRDNSKNTLYLQMNSLRAEDTAVYYCARHTSITMFDYWGQGTLVTVSS
VL: QSALTQPASVSGSPGQSITISCTGTSSDIGSYNYVSWYQQHPGRAPKVMIYDVTYRPSGVSNRFSGSKSGNTASLTISGLQAEDEADYYCGSYRKSSLYVFGTGTKVTVL
B4: the “Mean IC50 (nM) on L1.2/human CXCR5 cells (chemotaxis)” value (from here on “Mean IC50 (nM)”) with human CXCR5 [3] turned out to be 251 nM. Also, the binding result with rat CXCR5 and with mouse CXCR5 was “no binding” each time.

B5: mAb 80A11 (antibody, V domains shown)
VH: EVQLLESGGGLVQPGGSLRLSCAASGFTFSRYPMGWVRQAPGKGLEWVSSISPSGGMTRYADSVKGRFTISRDNSKNTLYLQMNSLRAEDTAVYYCARLKFTSGRTFDIWGQGTMVTVSS
VL: DIQMTQSPATLSLSPGERATLSCRASQSVSSYLAWYQQKPGQAPRLLIYGASSRVPGVPDRFTGSGSETDFTLTITRLEPEDFAVYYCQLSSSSPSWTFGQGTRLEIK
On to B5, for which the “Mean IC50 (nM)” value with human CXCR5 [3] came to 1.85 nM. Also, the binding result with rat CXCR5 and with mouse CXCR5 was “no binding” each time.

B6: mAb 80A10 (antibody, V domains shown)
VH: EVQLLESGGGLVQPGGSLRLSCAASGFTFSMYVMKWVRQAPGKGLEWVSGIRSSGGDTSYADSVKGRFTISRDNSKNTLYLQMNSLRAEDTAVYYCARQSRYCNGGSCYSRAFDIWGQGTMVTVSS
VL: QPPSASGTPGQRVTISCFGSNSNIGSTYAYWYQQVPGTAPKLLIYRNNQRPSGVPDRFSGSKSGTSASLAISGLRSEDEADYYCAAWDVNLSGHWVFGGGTKLTVLG
Turning to B6, the “Mean IC50 (nM)” value with human CXCR5 [3] worked out at 4.7 nM. Besides, the binding result in the assay with rat CXCR5 and with mouse CXCR5 was “no binding” in each case.

B7: mAb 42F03 (antibody, human IgG1, V domains shown)
VH: EVQLLESGGGLVQPGGSLRLSCAASGFTFSWYPMTWVRQAPGKGLEWVSYIRSSGGFTKYADSVKGRFTISRDNSKNTLYLQMNSLRAEDTAVYYCARGLYRWGQGTLVTVSS
VL: IQMTQSPGTLSLSPGERATLSCRASQSVSNNYLAWYQQKPGQAPRLLISGASRRATDIADRFSGSGSGTDFTLTISRLEPEDFAVYYCQQYDSFPLTFGGGTKVEIK
For B7, the “Mean IC50 (nM)” value with human CXCR5 [3] amounted to 1.86 nM. The binding result with rat CXCR5 and in the assay with mouse CXCR5 was “no binding” each time.

For the origin of these results see patent publication US20160115235A1 (ARES TRADING S A, published 2016).
